Among the data in publication PMC9693254 are Km and Vmax values, retold here.

Substrate in the data set: CCOC(=O)[C@H](CCCNC(=N)N)NC(=O)c1ccccc1
As to the kind of experiment: purified protein. The following applies: 50 mM Tris/HCl pH 8.0, 25 mM NaCl, 1 mM EDTA, 25 °C, substrate 25–100 μM, apparent Km, numbering of proCCN.

[1] abbreviates: CCN' auto-processed from proCCN'.
[2] abbreviates: mature CCN' prepared from [K8D,K63G,K131G,K133A]-proCCN (K8D lies in the removed propeptide,.

Positions count from the first letter of the chain named. In names and notes the source's numbering stands.

B1: cocoonase (CCN), mature form (Bombyx mori; K85G) (protein)
chain: IVGGEEISINKVPYQAYLLLQKDNEYFQCGGSIISKRHILTAAHCIEGISGVTVRIGSSNSNKGGTVYTAKSKVAHPKYNSKTKNNDFAIVTVNKDMAIDGKTTKIITLAKEGSSVPDKTKLLVSGWGATSEGGSSSTTLRAVHVQAHSDDECKKYFRSLTSNMFCAGPPEGGKDSCQGDSGGPAVKGNVQLGVVSFGVGCARKNNPGIYAKVSAAAKWIKST
The Km is the substrate concentration at which the rate is half of its maximum. A word on the Vmax: it is the top rate of the reaction or transport when substrate is in excess. Consider B1, for which the Km was 400 µM and the Vmax was determined as 0.006 µM/min.

B2: cocoonase (CCN), mature form (Bombyx mori; K153G/K155A/K85G) (protein)
chain: B1 chain with K119G, K121A
Regarding B2, under setting [1], the Km came to 370 µM and the Vmax worked out at 0.0084 µM/min. Further, under setting [2], the Km stood at 920 µM and the Vmax came to 0.0276 µM/min.
